According to US20240400657A1 (MorphoSys, published 2024):

T1: engineered version of human C5aR expressed on CHO cells of the PathHunter β-arrestin assay (DiscoveRx) (human, UniProt P21730 1-350)
T1 sequence (looked up): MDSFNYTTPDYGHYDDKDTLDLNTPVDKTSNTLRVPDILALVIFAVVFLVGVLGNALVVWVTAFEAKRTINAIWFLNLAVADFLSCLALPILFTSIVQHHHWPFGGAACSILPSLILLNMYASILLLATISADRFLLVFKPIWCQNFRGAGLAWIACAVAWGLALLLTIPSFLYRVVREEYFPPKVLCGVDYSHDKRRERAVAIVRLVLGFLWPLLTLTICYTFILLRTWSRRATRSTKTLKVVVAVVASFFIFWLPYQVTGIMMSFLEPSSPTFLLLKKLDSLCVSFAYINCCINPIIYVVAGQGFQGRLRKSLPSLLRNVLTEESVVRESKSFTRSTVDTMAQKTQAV

T2: C5aR expressed on purified human neutrophils (human, UniProt P21730 1-350)
T2 construct: whole, on cells; Used here for all assays on primary human cells (purified neutrophils, granulocytes and monocytes in whole blood, monocyte-derived macrophages); also called human C5aR expressed endogenously; C5aR on human granulocytes, monocytes and macrophages
T2 sequence (looked up): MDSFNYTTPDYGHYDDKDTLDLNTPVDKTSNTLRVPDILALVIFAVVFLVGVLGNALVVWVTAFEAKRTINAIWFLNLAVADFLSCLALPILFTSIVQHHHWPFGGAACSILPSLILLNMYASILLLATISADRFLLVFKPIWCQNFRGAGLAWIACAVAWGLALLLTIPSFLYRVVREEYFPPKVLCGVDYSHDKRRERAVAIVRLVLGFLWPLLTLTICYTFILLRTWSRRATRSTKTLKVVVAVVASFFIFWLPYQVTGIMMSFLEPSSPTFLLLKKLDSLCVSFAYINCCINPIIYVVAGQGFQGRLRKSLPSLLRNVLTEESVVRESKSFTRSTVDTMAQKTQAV

T3: C5aR expressed on purified cynomolgus neutrophils (cynomolgus monkey (Macaca fascicularis))
T3 construct: Endogenous receptor on neutrophils from whole blood of three animals; also called cynomolgus C5aR expressed endogenously
T3 chain: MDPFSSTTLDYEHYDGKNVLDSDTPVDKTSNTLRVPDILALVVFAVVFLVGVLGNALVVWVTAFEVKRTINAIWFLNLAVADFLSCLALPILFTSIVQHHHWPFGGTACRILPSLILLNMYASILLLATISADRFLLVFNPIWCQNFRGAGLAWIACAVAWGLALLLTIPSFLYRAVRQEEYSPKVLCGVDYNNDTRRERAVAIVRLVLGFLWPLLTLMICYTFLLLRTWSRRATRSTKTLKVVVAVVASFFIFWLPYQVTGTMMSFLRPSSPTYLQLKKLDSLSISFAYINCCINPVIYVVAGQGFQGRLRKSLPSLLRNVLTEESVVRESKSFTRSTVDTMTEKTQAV

T4: full length cynomolgus C5aR stably expressed on CHO Flp-In cells (cynomolgus monkey (Macaca fascicularis))
T4 chain: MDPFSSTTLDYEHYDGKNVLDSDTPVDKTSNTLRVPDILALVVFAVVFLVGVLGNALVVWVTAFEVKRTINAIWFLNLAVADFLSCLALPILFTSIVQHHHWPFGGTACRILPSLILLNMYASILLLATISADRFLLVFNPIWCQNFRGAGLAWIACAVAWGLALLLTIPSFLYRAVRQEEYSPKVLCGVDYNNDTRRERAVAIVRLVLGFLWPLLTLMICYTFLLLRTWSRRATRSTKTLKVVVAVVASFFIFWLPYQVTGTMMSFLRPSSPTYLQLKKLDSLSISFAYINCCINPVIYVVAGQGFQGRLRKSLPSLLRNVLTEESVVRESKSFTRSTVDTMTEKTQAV

T5: full length human C5aR stably expressed on CHO Flp-In cells (human, UniProt P21730 1-350)
T5 construct: also called human C5aR expressed on CHO cells
T5 sequence: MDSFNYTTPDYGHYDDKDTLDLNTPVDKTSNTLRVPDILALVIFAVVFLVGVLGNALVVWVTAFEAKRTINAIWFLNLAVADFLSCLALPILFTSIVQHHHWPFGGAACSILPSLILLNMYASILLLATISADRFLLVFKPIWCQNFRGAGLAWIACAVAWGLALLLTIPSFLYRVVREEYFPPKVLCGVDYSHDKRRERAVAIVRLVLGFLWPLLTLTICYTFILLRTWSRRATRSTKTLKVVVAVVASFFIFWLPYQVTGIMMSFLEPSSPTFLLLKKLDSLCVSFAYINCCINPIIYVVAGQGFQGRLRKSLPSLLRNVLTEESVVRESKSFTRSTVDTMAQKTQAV

B1: Human C5a (ligand)
chain: TLQKKIEEIAAKYKHSVVKKCCYDGACVNNDETCEQRAARISLGPRCIKAFTECCVVASQLRANISHKDMQLGR
B2: RefMAB #1 (antibody, human IgG1, kappa, V domains shown)
VH: EVQLVESGGGLVQPGGSLRLSCAASGFTFSSYVMHWVRQATGKGLEWVSAIDTGGGTYYADSVKGRFTISRENAKNSLYLQMNSLRAGDTAVYYCARDYYYYASGSYYKAFDIWGQGTMVTVSS
VL: EIVLTQSPGTLSLSPGERATLSCRASQSVSSRYLAWYQQKPGQAPRLLIYGASSRATGIPDRFSGSGSGTDFTLTISRLEPEDFAVYYCQQYGSPLTFGQGTKLEIKR
notes: also called IPH5401; NNC0215-0384

Experiments:
[1] = target: T1, engineered version of human C5aR …; experiment: cell-based or functional assay
[2] = target: T2, C5aR expressed on purified human …; experiment: FACS on purified human neutrophils, IgG titration
Protocol: (§1) Neutrophils were purified from EDTA-whole blood samples using a MACSexpress® Neutrophil Isolation Cocktail from Miltenyi Biotec. Briefly, using this kit, cells are isolated using magnetic labeling and negative magnetic separation. […] Measurements were done at the FACS Array device. FACS data were evaluated using FlowJo™, entered into GraphPad® Prism (v4.0) and fitted to the sigmoidal dose-response curve using non-linear regression to calculate the EC50.

[3] = target: T3, C5aR expressed on purified cynomolgus …; experiment: FACS, purified cynomolgus neutrophils, IgG titration
Protocol: as §1

[4] = target: T4, full length cynomolgus C5aR stably …; experiment: FACS, CHO Flp-In cells expressing cynomolgus C5aR, single IgG concentration
Protocol: (§2) The C5aR-CHO Flp-In™ cell lines were blocked and IgGs were added either in serial dilutions or at a single (high) concentration of 300 nM. For detection of IgG binding, an R-phycoerythrin (R-PE) conjugated anti-human IgG (Fc-gamma fragment specific)2 antibody was added and fluorescence was measured using the FACS Array or Novocyte device.

[5] = target: T2, C5aR expressed on purified human …; experiment: cell-based or functional assay
[6] = target: T1, engineered version of human C5aR …; experiment: cell-based or functional assay; remark: listed apart in the source
[7] = target: T5, full length human C5aR stably expressed …; experiment: FACS on Flp-In CHO cells, IgG titration
Protocol: as §2

[8] = target: T2, C5aR expressed on purified human …; experiment: cell-based or functional assay; remark: listed apart in the source

Binder | Activity of human C5a EC50 (nM) in absence of anti-C5aR antibody, β-arrestin recruitment (PathHunter) [1] | EC50 [2] | binding result [3] | binding result [4] | CD11b assay, granulocytes, 15 nM C5a, 20 minutes of IgG incubation: IC50 [5] | CD11b assay, granulocytes, 15 nM C5a, 300 minutes of IgG incubation: IC50 [5] | CD11b assay, monocytes, 15 nM C5a, 20 minutes of IgG incubation: IC50 [5] | CD11b assay, monocytes, 15 nM C5a, 300 minutes of IgG incubation: IC50 [5] | [%] inhibition at 1.2 nM C5a and 50 nM IgG, β-arrestin recruitment [6] | [%] inhibition at 11 nM C5a and 50 nM IgG, β-arrestin recruitment [6] | [%] inhibition at 100 nM C5a and 50 nM IgG, β-arrestin recruitment [6] | EC50 [7] | Activity of human C5a EC50 (nM) in presence of 50 nM anti-C5aR antibody, β-arrestin recruitment [1] | IgG concentration for 50% inhibition of CD11b upregulation, granulocytes, 15 nM human C5a [8] | IgG concentration for 50% inhibition of CD11b upregulation, granulocytes, 150 nM human C5a [8]
B1 | 2.9 nM | – | – | – | – | – | – | – | – | – | – | – | – | – | –
B2 | – | 3.1 nM | no binding (tested: ~250 nM) | no binding (tested: 300 nM) | 10.2 nM | 6.5 nM | 1.8 nM | 5.3 nM | 84.2% | 38.9% | 6.4% | 1.1 nM | 10 nM | 12 nM | 291 nM
